Columns and labels:
[1] = molecular target: recombinant HIV-1BaL gp120 (HIV-1 BaL); assay: ELISA on immobilized gp120BaL in 100 mM β-mercaptoethanol
[2] = molecular target: recombinant HIV-1BaL gp120 (HIV-1 BaL); assay: ELISA on immobilized gp120BaL in 25 mM DTT

Substance	percent of the binding seen under native conditions [1] [%]	percent of the binding seen under native conditions [2] [%]
MAb 2G12 (antibody)	50	50
MAb IgG1 b12 (antibody)	50	50
